What was measured:
[1] = target: soluble truncated αvβ8 integrin conjugated to alkaline phosphatase (UniProt P06756); assay: SPR; Biacore 2000, CM-5 chip; MAb LS-C44264 to placental alkaline phosphatase immobilised by amine coupling and used to capture the soluble integrin-AP; gH/gL injected at 50 µl/min; 25°C; 10 mM HEPES-NaOH pH 7.4, 150 mM NaCl, 0.005% P20; kobs against gH/gL concentration, 1:1 Langmuir
[2] = target: soluble truncated αvβ6 integrin conjugated to alkaline phosphatase (UniProt P06756); assay: as above
Sequence of soluble truncated αvβ6 integrin conjugated to alkaline phosphatase (P06756 31-1048, chain 1 of 2): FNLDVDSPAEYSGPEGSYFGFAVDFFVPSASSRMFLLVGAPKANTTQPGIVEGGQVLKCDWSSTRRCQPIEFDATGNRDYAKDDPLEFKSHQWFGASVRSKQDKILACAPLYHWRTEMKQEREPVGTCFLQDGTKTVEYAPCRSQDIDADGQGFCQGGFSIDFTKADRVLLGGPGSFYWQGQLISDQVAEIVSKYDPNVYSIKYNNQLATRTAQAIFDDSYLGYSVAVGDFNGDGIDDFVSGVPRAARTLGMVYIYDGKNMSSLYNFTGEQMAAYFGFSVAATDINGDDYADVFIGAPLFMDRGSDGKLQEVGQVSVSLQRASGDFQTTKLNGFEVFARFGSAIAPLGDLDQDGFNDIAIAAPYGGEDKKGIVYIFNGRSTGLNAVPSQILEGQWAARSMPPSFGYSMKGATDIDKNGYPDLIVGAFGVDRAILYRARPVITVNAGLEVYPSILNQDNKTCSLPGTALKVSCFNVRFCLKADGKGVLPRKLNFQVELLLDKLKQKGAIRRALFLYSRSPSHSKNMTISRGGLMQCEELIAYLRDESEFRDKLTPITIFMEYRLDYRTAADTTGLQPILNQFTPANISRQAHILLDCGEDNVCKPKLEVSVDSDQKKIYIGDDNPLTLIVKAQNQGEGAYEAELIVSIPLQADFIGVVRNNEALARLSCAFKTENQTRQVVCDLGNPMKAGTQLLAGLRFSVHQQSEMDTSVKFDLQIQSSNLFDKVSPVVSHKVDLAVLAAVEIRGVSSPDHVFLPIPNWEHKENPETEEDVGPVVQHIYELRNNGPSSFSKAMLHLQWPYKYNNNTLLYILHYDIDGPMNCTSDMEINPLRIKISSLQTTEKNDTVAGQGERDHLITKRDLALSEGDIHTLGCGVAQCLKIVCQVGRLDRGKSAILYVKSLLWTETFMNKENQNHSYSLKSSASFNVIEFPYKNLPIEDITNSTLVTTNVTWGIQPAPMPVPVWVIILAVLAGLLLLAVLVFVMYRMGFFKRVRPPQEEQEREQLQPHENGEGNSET
Sequence of soluble truncated αvβ6 integrin conjugated to alkaline phosphatase (P18564 22-709, chain 2 of 2, further chain): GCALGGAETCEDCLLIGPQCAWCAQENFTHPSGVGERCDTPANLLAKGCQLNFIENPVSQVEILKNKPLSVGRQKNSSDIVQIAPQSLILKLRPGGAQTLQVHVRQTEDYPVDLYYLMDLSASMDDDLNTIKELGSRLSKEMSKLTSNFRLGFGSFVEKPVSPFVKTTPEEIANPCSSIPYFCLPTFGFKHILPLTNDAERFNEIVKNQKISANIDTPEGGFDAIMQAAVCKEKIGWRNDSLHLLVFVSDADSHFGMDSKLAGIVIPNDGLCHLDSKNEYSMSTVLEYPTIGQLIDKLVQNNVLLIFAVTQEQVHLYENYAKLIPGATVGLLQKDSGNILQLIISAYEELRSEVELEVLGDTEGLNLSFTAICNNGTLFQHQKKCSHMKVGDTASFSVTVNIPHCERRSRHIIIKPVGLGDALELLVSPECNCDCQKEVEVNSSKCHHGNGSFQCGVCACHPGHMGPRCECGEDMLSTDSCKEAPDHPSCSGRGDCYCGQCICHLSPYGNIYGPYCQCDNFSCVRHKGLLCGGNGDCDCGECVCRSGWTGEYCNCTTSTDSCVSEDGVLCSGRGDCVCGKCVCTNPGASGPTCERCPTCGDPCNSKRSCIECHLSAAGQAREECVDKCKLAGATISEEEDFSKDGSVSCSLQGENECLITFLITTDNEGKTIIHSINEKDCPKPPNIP

Sequence of soluble truncated αvβ8 integrin conjugated to alkaline phosphatase (P06756 31-1048, chain 1 of 2): as the sequence (P06756 31-1048, chain 1 of 2) above
Sequence of soluble truncated αvβ8 integrin conjugated to alkaline phosphatase (P26012 43-684, chain 2 of 2, further chain): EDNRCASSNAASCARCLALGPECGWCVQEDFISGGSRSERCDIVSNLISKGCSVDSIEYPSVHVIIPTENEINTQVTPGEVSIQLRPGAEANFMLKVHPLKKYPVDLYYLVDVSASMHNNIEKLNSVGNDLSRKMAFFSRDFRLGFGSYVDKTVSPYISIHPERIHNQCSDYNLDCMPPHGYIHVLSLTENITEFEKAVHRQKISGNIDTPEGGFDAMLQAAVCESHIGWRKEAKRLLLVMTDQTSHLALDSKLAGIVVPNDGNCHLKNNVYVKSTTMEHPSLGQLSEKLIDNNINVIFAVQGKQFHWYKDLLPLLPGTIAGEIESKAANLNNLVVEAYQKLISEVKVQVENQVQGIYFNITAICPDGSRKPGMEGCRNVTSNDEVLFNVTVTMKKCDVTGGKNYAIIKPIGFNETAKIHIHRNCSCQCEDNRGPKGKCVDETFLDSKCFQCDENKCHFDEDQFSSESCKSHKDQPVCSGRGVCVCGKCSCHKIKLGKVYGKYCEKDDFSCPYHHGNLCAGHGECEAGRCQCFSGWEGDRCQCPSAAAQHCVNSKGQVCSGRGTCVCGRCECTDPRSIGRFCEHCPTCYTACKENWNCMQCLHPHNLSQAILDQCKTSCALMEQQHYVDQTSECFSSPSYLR

Substance: soluble form of HSV gH/gL (gHt/gL) (from UniProt P06477 19-838; P10185 20-224) (complex)
- Kd [1]: 27 nM
- koff [1]: 0.005 s⁻¹
- kon [1]: 207000 M⁻¹ s⁻¹
- Kd [2]: 12 nM
- koff [2]: 0.0018 s⁻¹
- kon [2]: 152000 M⁻¹ s⁻¹
